Biological target: GST fusion of human TRESK cytoplasmic loop (amino acids 174-280) (human) (UniProt Q7Z418)
Test: pull-down; GST-TRESK 174-280 on glutathione agarose; mouse brain cytosol; four pairs of independent assays; anti-tubulin β3 Western blot with densitometry (ImageJ)

Sequence of UniProt Q7Z418 (Q7Z418 other isoform, or with tags, fused parts or gaps): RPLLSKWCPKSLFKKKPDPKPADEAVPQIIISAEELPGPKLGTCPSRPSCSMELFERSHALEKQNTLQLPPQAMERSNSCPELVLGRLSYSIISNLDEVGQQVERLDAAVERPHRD

Substance: tubulin (mouse brain cytosol) (from UniProt P05213 1-451; Q9ERD7 1-450) (complex)
- densitometry counts of the anti-tubulin β3 immunoblot: 20500 counts
